Results published in US20090158456.

Experiments:
[1] = system: recombinant GST-CcHCT fusion protein (pGTPc103a_HCT)
[2] = system: recombinant GST-CcHQT fusion protein (pGTPc103a_HQT)

AcTEV protease
SDS PAGE gel electrophoresis and coomassie staining after AcTEV digestion [1]: generate a smaller polypeptide with the expected molecular weight of the full length proteins from each of the GST-tagged "precursor" proteins | SDS PAGE gel electrophoresis and coomassie staining after AcTEV digestion [2]: generate a smaller polypeptide with the expected molecular weight of the full length proteins from each of the GST-tagged "precursor" proteins
